Target: PKM2 (purchased from Abcam) (UniProt P14618 1-531)
Assay: cell-based or functional assay

Chain of PKM2 (purchased from Abcam) (P14618 whole entry): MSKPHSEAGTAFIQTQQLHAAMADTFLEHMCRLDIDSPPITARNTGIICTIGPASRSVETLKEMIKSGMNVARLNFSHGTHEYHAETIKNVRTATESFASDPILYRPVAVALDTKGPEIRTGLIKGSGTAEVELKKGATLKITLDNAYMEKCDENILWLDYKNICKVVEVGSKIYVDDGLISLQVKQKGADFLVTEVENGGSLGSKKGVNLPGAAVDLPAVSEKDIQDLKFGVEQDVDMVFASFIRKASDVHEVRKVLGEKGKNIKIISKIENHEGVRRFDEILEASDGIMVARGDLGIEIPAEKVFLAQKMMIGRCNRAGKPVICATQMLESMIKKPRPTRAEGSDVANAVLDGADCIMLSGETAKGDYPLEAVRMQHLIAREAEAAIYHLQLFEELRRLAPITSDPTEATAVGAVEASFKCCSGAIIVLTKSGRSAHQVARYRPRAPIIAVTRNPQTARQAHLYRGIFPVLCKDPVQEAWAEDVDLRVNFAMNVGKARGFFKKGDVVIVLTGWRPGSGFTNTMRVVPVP

B1: recombinant Flag-FOXM1D (purified) (natural protein, UniProt Q08050-4 1-786, looked up)
chain: MKTSPRRPLILKRRRLPLPVQNAPSETSEEEPKRSPAQQESNQAEASKEVAESNSCKFPAGIKIINHPTMPNTQVVAIPNNANIHSIITALTAKGKESGSSGPNKFILISCGGAPTQPPGLRPQTQTSYDAKRTEVTLETLGPKPAARDVNLPRPPGALCEQKRETCADGEAAGCTINNSLSNIQWLRKMSSDGLGSRSIKQEMEEKENCHLEQRQVKVEEPSRPSASWQNSVSERPPYSYMAMIQFAINSTERKRMTLKDIYTWIEDHFPYFKHIAKPGWKNSIRHNLSLHDMFVRETSANGKVSFWTIHPSANRYLTLDQVFKQQKRPNPELRRNMTIKTELPLGARRKMKPLLPRVSSYLVPIQFPVNQSLVLQPSVKVPLPLAASLMSSELARHSKRVRIAPKVFGEQVVFGYMSKFFSGDLRDFGTPITSLFNFIFLCLSVLLAEEGIAPLSSAGPGKEEKLLFGEGFSPLLPVQTIKEEEIQPGEEMPHLARPIKVESPPLEEWPSPAPSFKEESSHSWEDSSQSPTPRPKKSYSGLRSPTRCVSEMLVIQHRERRERSRSRRKQHLLPPCVDEPELLFSEGPSTSRWAAELPFPADSSDPASQLSYSQEVGGPFKTPIKETLPISSTPSKSVLPRTPESWRLTPPAKVGGLDFSPVQTSQGASDPLPDPLGLMDLSTTPLQSAPPLESPQRLLSSEPLDLISVPFGNSSPSDIDVPKPGSPEPQVSGLAANRSLTEGLVLDTMNDSLSKILLDISFPGLDEDPLGPDNINWSQFIPELQ
With B1 the “PK activity of PKM2 with FBP; FOXM1D added at 10, 20 and 30 μg per 10 μg PKM2 (molar ratios about 0.665, 1.33 and 2); share of the activity abolished at 1.33-fold FOXM1D” value was about 49%.

Reference: paper PMC8096781, “FOXM1D potentiates PKM2‐mediated tumor glycolysis and angiogenesis” (Molecular Oncology, 2021)
